Numbering of substitutions follows the chain as printed.

Experimental findings from patent US20220259593A1, “CONTROL OF MAMMALIAN GENE DOSAGE USING CRISPR” (The Regents of the University of California, priority 2019, published 2022) are described below.

Sequences and labels used below:
B1: cr663 (nucleic acid)
guide: GTTTAAGAGCTAAGCTGGAAACAGCATAGCAAGGTTAAATAAGGCTAGTCCGTTATCAACTTGAAAAAGTGGCACCTAGTAGGTGCT
modifications: listed as DNA, chemistry not fully specified
B2: cr137 (nucleic acid)
guide: B1 guide with G34T, A42G, G52T, A64C, T77G, A81C
modifications: listed as DNA, chemistry not fully specified
B3: cr067 (nucleic acid)
guide: B1 guide with G1C, T4G, G34T, T77G, A81C
modifications: listed as DNA, chemistry not fully specified
B4: cr664 (nucleic acid)
guide: B1 guide with G33C, G34C, T77G, A81C
modifications: listed as DNA, chemistry not fully specified
B5: cr445 (nucleic acid)
guide: B1 guide with G34T, C75T, T77C, A81T, G83C
modifications: listed as DNA, chemistry not fully specified
B6: cr795 (nucleic acid)
guide: B1 guide with G34T, G43T, C51A, G72T, A74T, T77G, A81C, T84A, C86A
modifications: listed as DNA, chemistry not fully specified
B7: cr993 (nucleic acid)
guide: B1 guide with G33C, G34T, A59T, T70A, T77G, A81C
modifications: listed as DNA, chemistry not fully specified
B8: cr295 (nucleic acid)
guide: B1 guide with C73G, T77G, A81C, G85C
modifications: listed as DNA, chemistry not fully specified
B9: cr187 (nucleic acid)
guide: B1 guide with T77A, A81T
modifications: listed as DNA, chemistry not fully specified
B10: cr860 (nucleic acid)
guide: B1 guide with G34C, G43A, C51T, T77G, A81C
modifications: listed as DNA, chemistry not fully specified
B11: cr160 (nucleic acid)
guide: B1 guide with G33T, G34C, T77G, A81C
modifications: listed as DNA, chemistry not fully specified
B12: cr862 (nucleic acid)
guide: B1 guide with G29T, A32C, G33C, G34T, T77G, A81C
modifications: listed as DNA, chemistry not fully specified
B13: cr512 (nucleic acid)
guide: B1 guide with G44C, C50G, T77G, A81C
modifications: listed as DNA, chemistry not fully specified
B14: cr081 (nucleic acid)
guide: B1 guide with G1A, T4A, G34T, T77G, A81C
modifications: listed as DNA, chemistry not fully specified
B15: cr130 (nucleic acid)
guide: B1 guide with A32T, G33T, G34T, T77G, A81C
modifications: listed as DNA, chemistry not fully specified
B16: cr044 (nucleic acid)
guide: B1 guide with T3G, A8T, G34T, T77G, A81C
modifications: listed as DNA, chemistry not fully specified
B17: cr648 (nucleic acid)
guide: B1 guide with G33C, G34T, G44T, C50A, T77G, A81C
modifications: listed as DNA, chemistry not fully specified
B18: cr807 (nucleic acid)
guide: B1 guide with G34T, A41T, T77G, A78T, A81C
modifications: listed as DNA, chemistry not fully specified
B19: cr250 (nucleic acid)
guide: B1 guide with G34T, T49A, G71C, T77G, T80G, A81C
modifications: listed as DNA, chemistry not fully specified
B20: cr509 (nucleic acid)
guide: B1 guide with G34T, G43C, C51G, C75A, T77G, A81C, G83T
modifications: listed as DNA, chemistry not fully specified
B21: cr328 (nucleic acid)
guide: B1 guide with G33C, G34T, A74C, T77G, A81C, T84G
modifications: listed as DNA, chemistry not fully specified
B22: cr949 (nucleic acid)
guide: B1 guide with A65T, T77G, A81C
modifications: listed as DNA, chemistry not fully specified
B23: cr114 (nucleic acid)
guide: B1 guide with G34T, G43T, C45T, G48A, C51A, A74C, T77G, A81C, T84G
modifications: listed as DNA, chemistry not fully specified
B24: cr587 (nucleic acid)
guide: B1 guide with G34T, G44C, T77G, A81C
modifications: listed as DNA, chemistry not fully specified
B25: cr436 (nucleic acid)
guide: B1 guide with A59T, T70A, T77G, A81C
modifications: listed as DNA, chemistry not fully specified
B26: cr052 (nucleic acid)
guide: B1 guide with G1A, T3G, G34T, T77G, A81C
modifications: listed as DNA, chemistry not fully specified
B27: cr524 (nucleic acid)
guide: B1 guide with G34T, A64T, T77G, A81C
modifications: listed as DNA, chemistry not fully specified
B28: cr455 (nucleic acid)
guide: B1 guide with G34T, C60T, T62G, A67C, G69A, T77G, A81C
modifications: listed as DNA, chemistry not fully specified
B29: cr054 (nucleic acid)
guide: B1 guide with G7C, A8C, G34T, T77G, A81C
modifications: listed as DNA, chemistry not fully specified

The first data set concerns K562 CRISPRi cells. Description: Constant region variant library pooled growth screen, K562. The data set is classed as cell-based, human. The following applies: sgRNA constant region variant; activity relative to unmodified constant region cr995; mean CRISPRi activity. The method, boiled down:
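Pooled library transduced into K562 CRISPRi cells in duplicate, puromycin-selected, grown at >2000× coverage and sampled after 4 to 8 days. Phenotypes per targeting sequence:constant region pair were normalized to the unmodified-scaffold pairing to give relative activity.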
Molecule B1 yielded a Mean relative activity of 0.01081.

B2 came in with a Mean relative activity of 0.008516.

Molecule B3 had a Mean relative activity of 0.01012.

For the molecule B4, the Mean relative activity was found to be 0.007435.

In turn, B5 returned a Mean relative activity of 0.01078.

For B6, the Mean relative activity is 0.009911.

In turn, B7 showed a Mean relative activity of 0.00969.

Molecule B8 had a Mean relative activity of 0.008268.

Take B9: the Mean relative activity stood at 0.00928.

Turning to B10, the Mean relative activity is 0.01022.

On to B11, for which the Mean relative activity turned out to be 0.007879.

As to B12, the Mean relative activity amounted to 0.007887.

For the molecule B13, the Mean relative activity amounted to 0.007414.

B14 came in with a Mean relative activity of 0.009207.

B15 yielded a Mean relative activity of 0.009507.

As to B16, the Mean relative activity is on record as 0.01046.

In turn, B17 registered a Mean relative activity of 0.008305.

For B18, the Mean relative activity was found to be 0.00776.

Regarding B19, the Mean relative activity is 0.01012.

Regarding B20, the Mean relative activity was determined as 0.01061.

On to B21, for which the Mean relative activity is 0.009384.

With B22, the Mean relative activity was determined as 0.01022.

On to B23, for which the Mean relative activity turned out to be 0.008589.

On to B24, for which the Mean relative activity stood at 0.009805.

Turning to B25, the Mean relative activity is reported as 0.008129.

In turn, B26 showed a Mean relative activity of 0.009238.

Staying with this data set, now noted: sgRNA constant region variants; activity relative to the original, un-modified constant region cr995.
In the case of B27, the Mean relative activity worked out at 1.032.

In turn, B28 displayed a Mean relative activity of 1.031.

B29 returned a Mean relative activity of 1.032.
